Experimental data from patent US8440430, “Modified dicer polypeptide and methods of use thereof” (The Regents of the University of California).

B1: pre-hlet-7 hairpin RNA (ssRNA)
RNA: UGAGGUAGUAGGUUGUAUAGUUUUAGGGUCACACCCACCACUGGGAGAUAACUAUACAAUCUACUGUCUUACC
B2: 37ab duplex RNA (dsRNA)
RNA 1: UGAGGUAGUAGGUUGUAUAGUUUGAAAGUUCACGAUU
RNA 2: UCGUGAACUUUCAAACUAUACAACCUACUACCUCAUU

Molecular target: T1, ΔDEAD human Dicer (lacks DExD/H-box domain, aa 1-604 deleted) (Homo sapiens, UniProt Q9UPY3 SEQ:1-1318)
T1 chain: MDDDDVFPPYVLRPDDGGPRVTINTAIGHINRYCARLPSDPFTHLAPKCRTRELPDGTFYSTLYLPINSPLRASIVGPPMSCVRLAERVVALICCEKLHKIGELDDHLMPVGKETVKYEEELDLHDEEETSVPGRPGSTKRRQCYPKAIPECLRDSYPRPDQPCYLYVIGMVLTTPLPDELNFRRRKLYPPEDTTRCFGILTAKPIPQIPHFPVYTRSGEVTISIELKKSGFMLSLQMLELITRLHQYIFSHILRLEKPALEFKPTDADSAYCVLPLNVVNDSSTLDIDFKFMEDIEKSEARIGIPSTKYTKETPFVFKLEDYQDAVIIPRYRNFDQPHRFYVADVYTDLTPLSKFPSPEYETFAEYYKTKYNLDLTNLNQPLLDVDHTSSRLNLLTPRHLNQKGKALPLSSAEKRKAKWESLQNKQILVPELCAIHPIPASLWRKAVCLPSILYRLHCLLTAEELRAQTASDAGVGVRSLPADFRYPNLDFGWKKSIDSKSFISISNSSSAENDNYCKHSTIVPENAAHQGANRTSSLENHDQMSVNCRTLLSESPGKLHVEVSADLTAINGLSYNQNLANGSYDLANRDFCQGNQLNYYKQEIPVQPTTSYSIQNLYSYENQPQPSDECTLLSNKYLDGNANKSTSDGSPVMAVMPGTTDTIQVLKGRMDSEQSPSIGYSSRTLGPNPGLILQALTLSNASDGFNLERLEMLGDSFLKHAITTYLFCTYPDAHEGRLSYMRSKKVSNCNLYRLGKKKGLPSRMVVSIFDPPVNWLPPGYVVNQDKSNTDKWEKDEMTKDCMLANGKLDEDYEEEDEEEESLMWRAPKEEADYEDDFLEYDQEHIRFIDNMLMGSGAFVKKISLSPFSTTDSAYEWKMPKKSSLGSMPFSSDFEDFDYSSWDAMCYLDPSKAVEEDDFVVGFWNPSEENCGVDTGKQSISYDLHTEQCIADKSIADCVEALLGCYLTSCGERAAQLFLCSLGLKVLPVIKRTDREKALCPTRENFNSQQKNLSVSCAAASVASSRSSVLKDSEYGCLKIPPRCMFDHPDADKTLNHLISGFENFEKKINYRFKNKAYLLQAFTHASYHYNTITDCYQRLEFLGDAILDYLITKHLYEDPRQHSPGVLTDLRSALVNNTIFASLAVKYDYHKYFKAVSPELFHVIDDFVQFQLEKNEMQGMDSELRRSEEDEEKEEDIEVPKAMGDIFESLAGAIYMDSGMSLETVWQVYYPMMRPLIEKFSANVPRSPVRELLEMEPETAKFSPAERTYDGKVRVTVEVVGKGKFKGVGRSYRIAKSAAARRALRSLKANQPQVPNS
Test: filter; within three-fold of full-length; 5 mM EDTA; exact Kd only in figure
Settings: tags: N-terminal His6 removed by site-specific protease, baculovirus/Sf9
Method: After dried, the bound (on Protran) or free (on Nytran) RNAs were detected and quantified with Phosphoimager (GE Healthcare). Percentage of bound RNAs was calculated by 100 multiplied by the ratio of radioactivity (volumes) detected on the Protran membrane over the total input volumes (radioactivity). The bound RNAs (%) (Y-axle) were plotted against protein concentrations (X-axle). K_d was determined by global fitting to the equation of kobsd = (kmax ×[Dicer])(K_{1/2} + [Dicer])^-1, here $kobsd$ is the observed rate constant at a particular protein concentration, $kmax$ is the maximal rate constant with saturating protein, and K_{1/2} (or K_d) is the protein concentration that provides half the maximal rate. Curve fitting was conducted with KleidaGraph (Synery Software).
RNA. […] These values are similar to those measured previously (Provost et al, 2002; Vermeulen et al, 2005). […] The protein lacking both the DExD/H-box domain and the dsRBD (2DD) bound ~3-4 fold more weakly to either substrate relative to full-length Dicer (FIG. 3A-C). It is possible that this severely truncated protein is generally destabilized, or that the DExD/H-box domain plays a small but measurable role in substrate binding.

Binder	Kd relative to full-length Dicer (fold) (label: 5'-32P, hairpin)	Kd relative to full-length Dicer (fold) (label: 5'-32P on one strand, perfect duplex with 2-nt 3' overhangs on both ends)
B1	≤ 3 fold of full-length Kd (30 nM)	–
B2	–	≤ 3 fold of full-length Kd (75 nM)
